Common to all, as to test: SEC
Experiment [1] addresses BM48-31 soluble spike ectodomain, stabilised (2P, GSAS linker, T4 fibritin trimerization motif) (bat sarbecovirus BM48-31 | bacteriophage T4).
The target in experiment [2] is BtKY72 soluble spike ectodomain, stabilised (2P, GSAS linker, T4 fibritin trimerization motif) (bat sarbecovirus BtKY72 | bacteriophage T4).
For experiment [3], the target named is Pang17 soluble spike ectodomain, stabilised (2P, GSAS linker, T4 fibritin trimerization motif) (pangolin sarbecovirus pang17 | bacteriophage T4).
Experiment [4] concerns the target RaTG13 soluble spike ectodomain, stabilised (2P, GSAS linker, T4 fibritin trimerization motif) (bat sarbecovirus RaTG13 | bacteriophage T4).
Experiment [5] concerns the target RmYN02 soluble spike ectodomain, stabilised (2P, GSAS linker, T4 fibritin trimerization motif) (bat sarbecovirus RmYN02 | bacteriophage T4).
The target of experiment [6] is Rs4081 soluble spike ectodomain, stabilised (2P, GSAS linker, T4 fibritin trimerization motif) (bat sarbecovirus RS4081 | bacteriophage T4).
Experiment [7] has as its target RsSHC014 soluble spike ectodomain, stabilised (2P, GSAS linker, T4 fibritin trimerization motif) (bat sarbecovirus RsSHC014 | bacteriophage T4) (UniProt U5WLK5).
Experiment [8] concerns the target WIV1 soluble spike ectodomain, stabilised (2P, GSAS linker, T4 fibritin trimerization motif) (bat sarbecovirus WIV1 | bacteriophage T4) (UniProt U5WI05).
Experiment [9] addresses Yun11 soluble spike ectodomain, stabilised (2P, GSAS linker, T4 fibritin trimerization motif) (sarbecovirus Yun11 | bacteriophage T4).

Broadly, the stoichiometry N is the number of molecules, sites or subunits per partner or assembly.

In [1], “BM48-31 soluble spike ectodomain, stabilised (2P, GSAS linker, T4 fibritin trimerization motif) (domain or fragment)” had a stoichiometry N of 3. In [2], “BtKY72 soluble spike ectodomain, stabilised (2P, GSAS linker, T4 fibritin trimerization motif) (domain or fragment)” gave a stoichiometry N of 3. On to “Pang17 soluble spike ectodomain, stabilised (2P, GSAS linker, T4 fibritin trimerization motif) (domain or fragment)”, for which the stoichiometry N in experiment [3] was 3. In experiment [4], “RaTG13 soluble spike ectodomain, stabilised (2P, GSAS linker, T4 fibritin trimerization motif) (domain or fragment)” returned a stoichiometry N of 3. For “RmYN02 soluble spike ectodomain, stabilised (2P, GSAS linker, T4 fibritin trimerization motif) (domain or fragment)”, the stoichiometry N in experiment [5] worked out at 3. Regarding “Rs4081 soluble spike ectodomain, stabilised (2P, GSAS linker, T4 fibritin trimerization motif) (domain or fragment)”, in [6], the stoichiometry N is 3. Regarding “RsSHC014 soluble spike ectodomain, stabilised (2P, GSAS linker, T4 fibritin trimerization motif) (from UniProt U5WLK5 1-1191) (domain or fragment)”, the stoichiometry N in experiment [7] is 3. Regarding “WIV1 soluble spike ectodomain, stabilised (2P, GSAS linker, T4 fibritin trimerization motif) (from UniProt U5WI05 1-1191) (domain or fragment)”, the stoichiometry N in experiment [8] was 3.

The substance “Yun11 soluble spike ectodomain, stabilised (2P, GSAS linker, T4 fibritin trimerization motif) (domain or fragment)” registered a stoichiometry N in [9] of 3.

Source of the values: article PMC10015101.
